Laboratory results from the supplement of paper PMC10126150.
± gives the standard deviation of the averaged measurements.

The sequences below were run on ATP (assay: switch fluorescence ratio, 500 uM ATP over buffer (Cy3 cluster intensity, sum of 5 cycles each) (fold (ratio)); higher = stronger signal-on switching upon ATP binding; sequences stand for … in TCGTCGGCAGCGTCAGATGTGTATAAGAGACAGTTTTTTTTTTTTTTTTTTTTTTTTT…TC). Settings: aptamer strand: ATP DNA aptamer (quencher-CACCTGGGGGAGTATTGCGGAGGAAGG + anchor), 100 nM annealed; ATP concentration: 500 uM.
In short: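 Cy3-labelled switching-strand clusters on a modified Illumina MiSeq flow-cell were annealed to 100 nM quencher-labelled ATP aptamer, imaged in selection buffer, then imaged after 15 min with 500 uM ATP at 22 °C. Five buffer/ATP cycles ran, with NaOH stripping and re-annealing between them. The fluorescence ratio is summed target-cycle over summed buffer-cycle Cy3 intensity per cluster, averaged per switch-domain sequence. Clusters outside 100-1000 RFU were excluded.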
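Also: ATP exposure 15 min at 22 °C before imaging.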

| Sequence | switch fluorescence ratio |
| --- | --- |
| AGAGTCGATT | 1.014 ± 0.0028 |
| AGAGTGGCAG | 1.01 ± 0.021 |
| AGAGTGGGGG | 0.971 ± 0.065 |
| AGAGTGTTTT | 1 ± 0.028 |
| AGAGTTTGGG | 0.988 ± 0.0099 |
| AGATAAAACG | 1.02 ± 0.076 |
| AGATAATCGC | 0.987 ± 0.03 |
| AGATAGGAG | 0.989 ± 0.027 |
| AGATATTCGG | 0.984 ± 0.07 |
| AGATATTTCG | 1.02 ± 0.028 |
| AGATCGGATA | 1.01 ± 0.024 |
| AGATCTACAT | 1.01 ± 0.016 |
| AGATGACTGA | 0.997 ± 0.048 |
| AGATGAGGTG | 1.01 ± 0.019 |
| AGATGCCGGA | 1 ± 0.027 |
| AGATGGGGCG | 0.955 ± 0.088 |
| AGATGGTACT | 0.9668 ± 4.6e-05 |
| AGATGGTCTG | 1.01 ± 0.032 |
| AGATGGTGGG | 1 ± 0.025 |
| AGATGTCAGC | 0.9708 ± 0.0063 |
| AGATGTCGTT | 0.997 ± 0.039 |
| AGATTCGTCA | 0.988 ± 0.018 |
| AGATTGGATA | 1.01 ± 0.036 |
| AGATTGGGCT | 0.997 ± 0.03 |
| AGATTTAAAG | 0.98 ± 0.034 |

| Sequence | switch fluorescence ratio |
| --- | --- |
| AGATTTAAGT | 0.985 ± 0.022 |
| AGATTTGAGC | 0.972 ± 0.035 |
| AGATTTGTCG | 0.993 ± 0.068 |
| AGATTTTAGG | 0.988 ± 0.012 |
| AGCAAAAAGG | 0.997 ± 0.054 |
| AGCAAACTTA | 1.14 ± 0.043 |
| AGCAAATTCG | 1.04 ± 0.016 |
| AGCAAGGGCG | 1.06 ± 0.074 |
| AGCAATCGGT | 1.6 ± 0.42 |
| AGCAATTTCG | 1.42 ± 0.081 |
| AGCACCGGGT | 1.02 ± 0.018 |
| AGCACGAAGG | 0.992 ± 0.04 |
| AGCACTCTAT | 1.04 ± 0.024 |
| AGCACTTTAT | 1.05 ± 0.073 |
| AGCAGACTGG | 0.988 ± 0.0033 |
| AGCAGAGGGA | 1.01 ± 0.011 |
| AGCAGAGGGT | 0.994 ± 0.04 |
| AGCAGGAGGA | 1 ± 0.031 |
| AGCAGGATGC | 0.987 ± 0.013 |
| AGCAGGGTTG | 1.029 ± 0.01 |
| AGCAGGTGGC | 1.13 ± 0.045 |
| AGCATATAGG | 1.009 ± 0.0059 |
| AGCATGGCTT | 1.04 ± 0.054 |
| AGCATGGTTG | 1.01 ± 0.026 |
| AGCATGTATC | 1.07 ± 0.012 |

| Sequence | switch fluorescence ratio |
| --- | --- |
| AGCATTGTGA | 0.998 ± 0.051 |
| AGCATTTAGG | 1.02 ± 0.035 |
| AGCATTTCTT | 0.98 ± 0.042 |
| AGCCATGATG | 0.979 ± 0.036 |
| AGCCCGTCGT | 0.99 ± 0.022 |
| AGCCCTCGTT | 1 ± 0.043 |
| AGCCGAAAGG | 1.024 ± 0.0025 |
| AGCCGCGCAG | 1.035 ± 0.0056 |
| AGCCGGGGGC | 1.004 ± 0.002 |
| AGCCGGGTGT | 1.34 ± 0.47 |
| AGCCGTATGA | 1.013 ± 0.0087 |
| AGCCTGATCT | 1.036 ± 0.0053 |
| AGCCTGGGCT | 0.99 ± 0.014 |
| AGCCTGTATG | 0.9542 ± 0.0046 |
| AGCCTTAGGG | 1 ± 0.02 |
| AGCCTTTTTT | 0.982 ± 0.011 |
| AGCGATGTCG | 0.9885 ± 0.0014 |
| AGCGATTCTG | 1.02 ± 0.032 |
| AGCGCTGGCG | 1 ± 0.049 |
| AGCGGAAGAA | 1.02 ± 0.024 |
| AGCGGAGAGG | 1.006 ± 0.0096 |
| AGCGGAGTAT | 0.998 ± 0.063 |
| AGCGGATTCT | 0.984 ± 0.041 |
| AGCGGATTGG | 1.02 ± 0.061 |
| AGCGGATTTG | 0.966 ± 0.014 |

| Sequence | switch fluorescence ratio |
| --- | --- |
| AGCGGCAACG | 1.08 ± 0.098 |
| AGCGGCCTGG | 0.992 ± 0.014 |
| AGCGGCTAAT | 0.981 ± 0.011 |
| AGCGGCTCGC | 1.007 ± 0.0047 |
| AGCGGGGCGG | 1.02 ± 0.017 |
| AGCGGGGCTG | 1.01 ± 0.029 |
| AGCGGGTCGG | 1 ± 0.021 |
| AGCGGTGTGC | 0.9738 ± 0.0031 |
| AGCGGTTAAT | 0.984 ± 0.019 |
| AGCTAAAGGC | 1.03 ± 0.032 |
| AGCTAACGAC | 1.83 ± 0.067 |
| AGCTATCAGC | 1.01 ± 0.047 |
| AGCTCAGGGA | 1.04 ± 0.027 |
| AGCTGAGGCT | 0.999 ± 0.015 |
| AGCTGAGGGG | 1.01 ± 0.012 |
| AGCTGATACT | 2 ± 0.061 |
| AGCTGATTTT | 0.982 ± 0.033 |
| AGCTGGAACA | 1 ± 0.018 |
| AGCTGGAATA | 1 ± 0.06 |
| AGCTGGGGGG | 0.982 ± 0.044 |
| AGCTGGGGTC | 0.9851 ± 0.0063 |
| AGCTGGGTTT | 1 ± 0.021 |
| AGCTGTCTCA | 0.991 ± 0.017 |
| AGCTGTGATG | 1.01 ± 0.058 |
| AGCTGTGTGT | 1.012 ± 0.0047 |

| Sequence | switch fluorescence ratio |
| --- | --- |
| AGCTGTTTCA | 0.973 ± 0.02 |
| AGCTTTATTA | 0.9984 ± 0.0032 |
| AGGAAAAACT | 1.02 ± 0.047 |
| AGGAAAGGGC | 0.983 ± 0.034 |
| AGGAACGCGC | 1.02 ± 0.027 |
| AGGAAGGGT | 0.9978 ± 0.0079 |
| AGGAAGGTCG | 0.969 ± 0.013 |
| AGGAAGGTTT | 0.993 ± 0.041 |
| AGGAATATTT | 1.04 ± 0.095 |
| AGGAATGAGG | 0.958 ± 0.011 |
| AGGAATTCCG | 0.992 ± 0.054 |
| AGGAATTTAG | 1.02 ± 0.03 |
| AGGACAGATA | 1.01 ± 0.017 |
| AGGACGCGAC | 1.548 ± 0.014 |
| AGGACGCTGG | 0.9449 ± 0.0088 |
| AGGACGGCAG | 0.964 ± 0.13 |
| AGGACTCTCA | 1.01 ± 0.032 |
| AGGACTTTCT | 1.036 ± 0.0013 |
| AGGAGAAGAC | 1.03 ± 0.049 |
| AGGAGACTTA | 0.9877 ± 0.0047 |
| AGGAGATGTA | 1.029 ± 0.0061 |
| AGGAGCAAGG | 1.26 ± 0.072 |
| AGGAGCCTTT | 0.9927 ± 0.0011 |
| AGGAGCTCTT | 0.998 ± 0.0056 |
| AGGAGGGGAG | 1.024 ± 0.0053 |

| Sequence | switch fluorescence ratio |
| --- | --- |
| AGGAGGGGTT | 1.01 ± 0.037 |
| AGGAGGTATT | 0.99 ± 0.026 |
| AGGAGGTTTG | 0.97 ± 0.015 |
| AGGAGTGCTG | 0.995 ± 0.052 |
| AGGAGTTGGA | 0.987 ± 0.013 |
| AGGAGTTGGG | 0.97 ± 0.046 |
| AGGAGTTTGC | 1.068 ± 0.0073 |
| AGGATAAGCT | 1.1 ± 0.17 |
| AGGATAGATA | 1 ± 0.012 |
| AGGATAGCAA | 1.3 ± 0.023 |
| AGGATAGGAG | 0.9957 ± 0.0014 |
| AGGATAGGGG | 0.991 ± 0.026 |
| AGGATATTGG | 1.01 ± 0.02 |
| AGGATCATGG | 1.01 ± 0.021 |
| AGGATCCTCG | 0.992 ± 0.018 |
| AGGATCGATG | 1 ± 0.05 |
| AGGATCGGGG | 1.01 ± 0.013 |
| AGGATCTACT | 1.01 ± 0.021 |
| AGGATGAGGT | 0.978 ± 0.057 |
| AGGATGGAGT | 0.987 ± 0.031 |
| AGGATGGGGT | 0.966 ± 0.017 |
| AGGATGTTGG | 0.993 ± 0.026 |
| AGGATTAAGG | 0.992 ± 0.018 |
| AGGATTAGGA | 1.01 ± 0.062 |
| AGGATTGTGT | 0.9523 ± 0.0032 |

| Sequence | switch fluorescence ratio |
| --- | --- |
| AGGATTTAAG | 1.05 ± 0.022 |
| AGGATTTCGT | 1.008 ± 0.0068 |
| AGGCAGACTT | 1.004 ± 0.0089 |
| AGGCAGGACT | 1.02 ± 0.044 |
| AGGCAGTCCA | 1.003 ± 0.0065 |
| AGGCCACCTT | 1.04 ± 0.023 |
| AGGCCCATGT | 1.02 ± 0.012 |
| AGGCCCCCCA | 1.328 ± 0.013 |
| AGGCCCGTTT | 1.02 ± 0.029 |
| AGGCCCTAAG | 1.01 ± 0.017 |
| AGGCCGGCTG | 0.96 ± 0.066 |
| AGGCCTCAGG | 0.99 ± 0.022 |
| AGGCGGACTG | 1.02 ± 0.13 |
| AGGCGGATGT | 0.978 ± 0.016 |
| AGGCGGGCAG | 1.039 ± 0.004 |
| AGGCGGGCGG | 0.959 ± 0.019 |
| AGGCGTTTAG | 1.03 ± 0.059 |
| AGGCTACATA | 1.03 ± 0.019 |
| AGGCTACCGT | 1.0254 ± 0.001 |
| AGGCTAGGAG | 0.994 ± 0.053 |
| AGGCTCCTCT | 1.02 ± 0.025 |
| AGGCTCGGGG | 1.04 ± 0.026 |
| AGGCTCTAAG | 1.01 ± 0.011 |
| AGGCTCTTAT | 1.03 ± 0.049 |
| AGGCTGCATG | 1.01 ± 0.021 |

| Sequence | switch fluorescence ratio |
| --- | --- |
| AGGCTGTTTT | 1.02 ± 0.016 |
| AGGCTTAGGG | 1.03 ± 0.022 |
| AGGCTTATAT | 1.01 ± 0.024 |
| AGGCTTATTT | 1 ± 0.023 |
| AGGCTTGTTT | 0.996 ± 0.015 |
| AGGGAAAAGA | 1.03 ± 0.031 |
| AGGGAAATCG | 0.979 ± 0.037 |
| AGGGAAGTTG | 1.01 ± 0.07 |
| AGGGAGGTTT | 0.944 ± 0.073 |
| AGGGAGTATG | 1.01 ± 0.023 |
| AGGGAGTGGG | 0.968 ± 0.027 |
| AGGGAGTTTT | 1.01 ± 0.026 |
| AGGGATAAAA | 1.02 ± 0.055 |
| AGGGATAAGC | 0.988 ± 0.021 |
| AGGGATAATT | 0.975 ± 0.027 |
| AGGGATAGTT | 0.992 ± 0.0047 |
| AGGGATCTGC | 0.966 ± 0.028 |
| AGGGATGGGG | 0.976 ± 0.016 |
| AGGGATGGTA | 1.006 ± 0.0083 |
| AGGGATTTGT | 1.028 ± 0.003 |
| AGGGATTTTT | 0.999 ± 0.011 |
| AGGGCAAACG | 1.05 ± 0.0075 |
| AGGGCAACTG | 1.07 ± 0.079 |
| AGGGCAGCTT | 1.06 ± 0.025 |
| AGGGCATTCT | 0.9837 ± 0.0017 |
